Assay results: patent publication US20180312579A1 (Genentech, published 2018)
Positions count from the first letter of the chain named. Each block holds one binder with its values, some of them ahead of it.

Assays:
[1] = biological target: T1, human RSPO3 with C-terminal HA tag, stably expressed in 293 cells (human, UniProt Q9BXY4 22-272); assay: IHC, FFPE 293 cell pellet, RSPO3 Hi; - = not significant staining
T1 construct: Whole open reading frame expressed in HEK-293 cells (high, medium, low); FFPE pellets; also called hRSPO3; RSPO3 Hi
T1 sequence: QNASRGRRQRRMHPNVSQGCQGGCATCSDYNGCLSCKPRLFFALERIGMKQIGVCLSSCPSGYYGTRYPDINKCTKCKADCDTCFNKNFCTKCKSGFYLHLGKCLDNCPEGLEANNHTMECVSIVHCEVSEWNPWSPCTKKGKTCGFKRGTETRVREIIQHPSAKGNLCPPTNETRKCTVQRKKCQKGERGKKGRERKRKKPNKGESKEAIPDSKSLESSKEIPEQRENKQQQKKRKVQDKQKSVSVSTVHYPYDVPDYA

[2] = biological target: T2, human RSPO2 with C-terminal HA tag, stably expressed in 293 cells (human, UniProt Q6UXX9 22-243); assay: IHC, FFPE 293 cell pellet, RSPO2 Low
T2 construct: Whole open reading frame was expressed from a lentiviral vector in HEK-293 cells sorted for high, medium or low expression; formalin-fixed paraffin-embedded pellets; also called hRSPO2; RSPO2 Hi

[3] = biological target: T3, FLAG-tagged human RSPO2 (Genentech) (human, UniProt Q6UXX9 22-243); assay: competitive binding ELISA: titrated against biotinylated RNF43-Flag (RNF43-ECD) binding to plate-coated hRSPO2; signal = bound RNF43, normalized OD
T3 construct: also called hRSPO2; RSPO2 coated plates; not shown: FLAG tag

[4] = biological target: T2, human RSPO2 with C-terminal HA tag, …; assay: IHC, FFPE 293 cell pellet, RSPO2 Hi
[5] = biological target: T4, human RSPO4 with C-terminal HA tag, stably expressed in 293 cells (human, UniProt Q2I0M5 20-234); assay: IHC, FFPE 293 cell pellet, RSPO4 Hi; - = not significant staining
T4 construct: also called hRSPO4; RSPO4 Hi
T4 sequence (Q2I0M5 other isoform, or with tags, fused parts or gaps limits assumed): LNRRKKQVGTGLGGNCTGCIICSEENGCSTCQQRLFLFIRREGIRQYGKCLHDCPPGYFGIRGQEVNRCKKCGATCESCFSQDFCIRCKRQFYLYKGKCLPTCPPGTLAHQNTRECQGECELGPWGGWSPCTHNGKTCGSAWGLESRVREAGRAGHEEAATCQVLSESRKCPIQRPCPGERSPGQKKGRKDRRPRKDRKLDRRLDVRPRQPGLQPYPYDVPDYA

mouse RSPO2 = mouse RSPO2 (mouse, UniProt Q8BFU0 22-205, limits assumed); assay: cell-based or functional assay
Sequence of mouse RSPO2 (Q8BFU0 22-205 limits assumed): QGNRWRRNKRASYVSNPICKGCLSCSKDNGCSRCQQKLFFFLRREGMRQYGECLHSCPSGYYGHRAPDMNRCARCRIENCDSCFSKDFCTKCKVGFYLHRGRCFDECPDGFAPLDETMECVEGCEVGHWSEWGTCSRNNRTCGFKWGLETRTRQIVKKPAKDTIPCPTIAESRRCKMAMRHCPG

cynomolgus RSPO3 = biological target: T5, cynomolgus RSPO3 (cynomolgus, UniProt A0A2K5UTQ7 22-273); assay: cell-based or functional assay
T5 sequence: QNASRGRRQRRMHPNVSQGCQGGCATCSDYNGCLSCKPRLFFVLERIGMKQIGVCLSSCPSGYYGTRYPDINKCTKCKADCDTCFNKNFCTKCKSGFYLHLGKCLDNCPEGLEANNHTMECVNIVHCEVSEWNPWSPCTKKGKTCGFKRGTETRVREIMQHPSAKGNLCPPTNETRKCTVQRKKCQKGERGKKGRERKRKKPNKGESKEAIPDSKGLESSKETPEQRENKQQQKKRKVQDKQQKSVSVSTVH

mouse RSPO3 = biological target: T6, mouse RSPO3 (mouse, UniProt Q2TJ95 22-277, limits assumed); assay: cell-based or functional assay
T6 sequence (looked up): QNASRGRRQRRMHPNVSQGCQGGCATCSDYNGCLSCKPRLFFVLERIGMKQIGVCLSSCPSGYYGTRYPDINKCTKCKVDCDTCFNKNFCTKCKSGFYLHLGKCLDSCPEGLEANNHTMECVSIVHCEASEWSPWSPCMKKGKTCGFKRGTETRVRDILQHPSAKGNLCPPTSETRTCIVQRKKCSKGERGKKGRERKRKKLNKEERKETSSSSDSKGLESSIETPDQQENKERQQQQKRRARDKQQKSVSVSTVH

recombinant human RSPO3 = biological target: T7, recombinant human RSPO3 (human, UniProt Q9BXY4 22-272); assay: cell-based or functional assay
T7 sequence: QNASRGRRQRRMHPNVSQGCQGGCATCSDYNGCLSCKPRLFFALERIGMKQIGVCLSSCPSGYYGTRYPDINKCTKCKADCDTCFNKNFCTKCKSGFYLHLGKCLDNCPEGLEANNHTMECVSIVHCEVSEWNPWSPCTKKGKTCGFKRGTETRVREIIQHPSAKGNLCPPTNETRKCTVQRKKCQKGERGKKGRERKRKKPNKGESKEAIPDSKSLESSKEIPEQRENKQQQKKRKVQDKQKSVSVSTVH

recombinant human RSPO2 = recombinant human RSPO2 (human, UniProt Q6UXX9 22-243); assay: cell-based or functional assay
cynomolgus RSPO2 = cynomolgus RSPO2 (cynomolgus, UniProt G7PCH9 22-243); assay: cell-based or functional assay
[6] = biological target: T2, human RSPO2 with C-terminal HA tag, …; assay: IHC, FFPE 293 cell pellet, RSPO2 Med
[7] = biological target: T8, human RSPO1 with C-terminal HA tag, stably expressed in 293 cells (human, UniProt Q2MKA7 21-263); assay: IHC, FFPE 293 cell pellet, RSPO1 Hi; - = not significant staining
T8 construct: also called hRSPO1; RSPO1 Hi
T8 sequence (Q2MKA7 other isoform, or with tags, fused parts or gaps limits assumed): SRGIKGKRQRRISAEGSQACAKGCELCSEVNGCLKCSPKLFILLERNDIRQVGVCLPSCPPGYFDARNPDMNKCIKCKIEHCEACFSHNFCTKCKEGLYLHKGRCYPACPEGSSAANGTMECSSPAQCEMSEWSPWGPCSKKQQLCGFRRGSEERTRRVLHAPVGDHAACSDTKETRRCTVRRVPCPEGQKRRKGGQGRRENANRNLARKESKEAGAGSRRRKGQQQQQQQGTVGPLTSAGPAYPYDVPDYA

[8] = biological target: T9, human RSPO2 L186P variant (human, UniProt Q6UXX9 22-243); assay: cell-based or functional assay
T9 chain: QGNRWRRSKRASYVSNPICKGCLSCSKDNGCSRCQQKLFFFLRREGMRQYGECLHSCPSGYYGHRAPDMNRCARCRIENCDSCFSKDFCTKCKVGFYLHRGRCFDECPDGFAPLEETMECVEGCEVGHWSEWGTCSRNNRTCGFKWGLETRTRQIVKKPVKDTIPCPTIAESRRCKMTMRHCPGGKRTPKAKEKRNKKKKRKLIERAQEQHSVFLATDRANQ

[9] = biological target: T1, human RSPO3 with C-terminal HA tag, …; assay: IHC, FFPE 293 cell pellet, RSPO3 Low
[10] = biological target: T1, human RSPO3 with C-terminal HA tag, …; assay: IHC, FFPE 293 cell pellet, RSPO3 Med
[11] = biological target: T3, FLAG-tagged human RSPO2 (Genentech); assay: competitive binding ELISA: antibody titrated against LGR4-Fc (LGR4-ECD) binding to plate-coated hRSPO2; signal = bound LGR4-Fc, OD(450/630)/OD no antibody
Procedure: (§1) To measure the activity of anti-RSPO antibodies in blocking the binding of LGR4 and -5 ECDs to RSPOs, MaxiSorp 384-well microwell plates (Thermo Scientific Nunc, Roskilde, Denmark) were coated with 25 ul/well of 0.5 μg/ml hRSPO2 or hRSPO3 (Genentech) in 50 mM carbonate buffer, pH 9.6, overnight at 4° C. Plates were blocked with at 80 ul/well of 0.5% bovine serum albumin, 15 parts per million Proclin 300 in phosphate buffered saline (PBS), pH 7.4, for 1 hour. Serially diluted anti-RSPO antibodies ([…] in […] serial dilution plus buffer blank) containing 0.1 μg/ml LGR4-Fc or 0.015 μg/ml LGR5-Fc in assay buffer (0.5% BSA, 0.05% polysorbate 20, 15 parts per million Proclin 300 in PBS) were added to the plates at 25 ul/well. After a 2-hour incubation, LGR4-Fc and LGR5-Fc bound to the plates were detected using peroxidase labeled goat F(ab′)2 anti-human Fc (Jackson ImmunoResearch, West Grove, Pa.). After a 1 hour incubation, the substrate 3,3′,5,5′-tetramethyl benzidine (Moss Inc., Pasadena, Md.) was added to the plates and the reaction was stopped by adding 1 M phosphoric acid. Plates were washed with PBS, pH 7.4, containing 0.05% tween 20, between steps and all the incubation steps following the coating step were performed at room temperature on an orbital shaker. Absorbance was read at 450 nm on a multiskan Ascent reader (Thermo Scientific, Hudson, N.H.).

[12] = biological target: T10, FLAG-tagged human RSPO3 (Genentech) (human, UniProt Q9BXY4 22-272); assay: competitive binding ELISA: antibody titrated against LGR4-Fc (LGR4-ECD) binding to plate-coated hRSPO3; signal = bound LGR4-Fc, OD(450/630)/OD no antibody
T10 construct: also called hRSPO3; RSPO3 coated plates; not shown: FLAG tag
T10 sequence: T7 sequence
Procedure: as §1

[13] = biological target: T1, human RSPO3 with C-terminal HA tag, …; assay: IHC, FFPE 293 cell pellet, RSPO3 Hi
[14] = biological target: T10, FLAG-tagged human RSPO3 (Genentech); assay: competitive binding ELISA: titrated against biotinylated RNF43-Flag (RNF43-ECD) binding to plate-coated hRSPO3; signal = bound RNF43, normalized OD

binding result [1]: no binding
percentage of cells staining [2]: < 5%
IC50 (read off the curve) [3]: ~1 µg/mL
percentage of cells staining [4]: > 95%
binding result [5]: no binding
IC50, WNT luciferase reporter, bivalent antibody (mouse RSPO2): 44 pM
IC50, WNT luciferase reporter, bivalent antibody (cynomolgus RSPO3): > 500000 pM
IC50, WNT luciferase reporter, bivalent antibody (mouse RSPO3): > 500000 pM
IC50, WNT luciferase reporter, bivalent antibody (recombinant human RSPO3): > 500000 pM
IC50, WNT luciferase reporter, bivalent antibody (recombinant human RSPO2): 12 pM
IC50, WNT luciferase reporter, bivalent antibody (cynomolgus RSPO2): 13 pM
percentage of cells staining [6]: 50%
binding result [7]: no binding
IC50 (read off the curve), WNT reporter RLU stimulated by 38 pM rhRSPO2 L186P [8]: ~20 pM
B1: 36D2 (antibody, V domains shown)
VH: QIQLQESGPGLVKPSQSLSLTCSVTGNSITSSDWSWIRQFPGKKLEWMGYMNYGGGTYYNPSLENRISITRDTSKNQFFLHLKSVTTEDTATYYCARERPHPYAYFDVWGQGIQVTVSS
VL: ELVFTQPQSVSGSLGQEISISCTRSSGNIGSNYVSWYQQQSSNKPRLLIYKFDQRPSGVPDRFSGSTDSSSNSGILTISRLQPEDEGDYYCLSGYDKYVFGSGTQLTLL
notes: also called monoclonal antibody 36D2

percentage of cells staining [9]: 50%
percentage of cells staining [2]: 10%
IC50 (read off the curve) [3]: ~0.1 µg/mL
percentage of cells staining [10]: 70%
percentage of cells staining [4]: 70%
binding result [5]: no binding
IC50, WNT luciferase reporter, bivalent antibody (mouse RSPO2): 24000 pM
IC50, WNT luciferase reporter, bivalent antibody (cynomolgus RSPO3): 0.2 pM
IC50, WNT luciferase reporter, bivalent antibody (mouse RSPO3): 0.4 pM
IC50, WNT luciferase reporter, bivalent antibody (recombinant human RSPO3): 0.01 pM
IC50, WNT luciferase reporter, bivalent antibody (recombinant human RSPO2): 9800 pM
IC50, WNT luciferase reporter, bivalent antibody (cynomolgus RSPO2): 2700 pM
IC50 (read off the curve) [11]: ~0.09 µg/mL
percentage of cells staining [6]: 40%
IC50 (read off the curve) [12]: ~0.1 µg/mL
binding result [7]: no binding
percentage of cells staining [13]: 90%
IC50 (read off the curve) [14]: ~0.08 µg/mL
B2: 26E11 (antibody, V domains shown)
VH: EVQLQESGPSLVKPSQTLSLTCSVTGDSITSGYWSWIRKFPGNKLEFMGYISFSGKTYYIPSLKSRVSITRDTSKNQYYLQLNSVTTEDTATYYCATYHGYGGPWFAYWGQGTLVTVSS
VL: DIKMTQSPSSMYASLGERVTITCKASQDIDSYLSWFQQKPGKSPKTLIYLTNRLIDGVPSRFSGSGSGQDYSLTINSLEYEDMGIYYCLQYDEFPVTFGAGTRLEIK
notes: also called monoclonal antibody 26E11; anti-RSPO2/3 antibody

binding result [1]: no binding
percentage of cells staining [2]: 30%
IC50 (read off the curve) [3]: ~0.1 µg/mL
percentage of cells staining [4]: 80%
binding result [5]: no binding
IC50, WNT luciferase reporter, bivalent antibody (mouse RSPO2): 2.2 pM
IC50, WNT luciferase reporter, bivalent antibody (cynomolgus RSPO3): > 500000 pM
IC50, WNT luciferase reporter, bivalent antibody (mouse RSPO3): > 500000 pM
IC50, WNT luciferase reporter, bivalent antibody (recombinant human RSPO3): > 500000 pM
IC50, WNT luciferase reporter, bivalent antibody (recombinant human RSPO2): 0.4 pM
IC50, WNT luciferase reporter, bivalent antibody (cynomolgus RSPO2): 0.5 pM
EC50 (read off the curve) [11]: ~0.07 µg/mL
percentage of cells staining [6]: 40%
binding result [7]: no binding
IC50 (read off the curve), WNT reporter RLU stimulated by 38 pM rhRSPO2 L186P [8]: ~0.6 pM
B3: 1A1 (antibody, V domains shown)
VH: EVQLVESGGGLVKPEGSLKLSCVASGFTFSDYFMSWVRQAPGQGLEWVAHIYTKTYNYATYYSGSVKGRFSISRDDSRNMVYLQMNNLRTEDTATYYCTTDEDWYFDFWGQGTQVTVSS
VL: QPVLTQSPSVSASLGASVKLTCTLSSQHSTNYIEWYQQHPDKSPKFLMQVRDGSHSKGDGTPDRFSGSSSGAHRYLSISNLQLEDEAIYYCGLSDVSLYLFGSGTQLTLL
notes: also called monoclonal antibody 1A1

binding result [1]: no binding
percentage of cells staining [2]: 40%
percentage of cells staining [4]: 95%
binding result [5]: no binding
percentage of cells staining [6]: 60%
binding result [7]: no binding
B4: 49G5 (antibody, V domains shown)
VH: QVQLKESGPGLVQPSQTLSLTCTVSGFSLTSYNIHWVRQPPGKGLEWMGAVWRGGGTYYNSNLKSRVIITRDTSKSQVLLKLNNLQHEDTAMYYCAREELRYVYFDVWGQGIQVTVSS
VL: B3 VL with V3L, H28Y, S29N, N31Y, V50L, R51S, T61I, L93V, L100V, L109V
notes: also called monoclonal antibody 49G5
